Assays:
[1] = target: Recombinant His-tagged ZIKV NS5 (Zika virus); experiment: pull-down; Ni-NTA agarose resin; 3 mg of whole-cell protein from 293 T cells incubated with 90 µg of recombinant His-tagged bait (BSA as control); UBA1 detected by Western blot
[2] = target: ZIKV HA-NS5 (full-length Zika virus NS5 fused to an HA-tag in its N-terminus) (Zika virus); experiment: co-IP; anti-HA agarose beads; lysates of transfected 293 T cells (lysis buffer with protease inhibitors and benzonase), overnight at 4 °C; UBA1 detected by Western blot
[3] = target: WNV HA-NS5 (HA-tagged West Nile virus NS5) (West Nile virus) (UniProt P06935); experiment: as above
Chain of UniProt P06935 (P06935 2526-3430): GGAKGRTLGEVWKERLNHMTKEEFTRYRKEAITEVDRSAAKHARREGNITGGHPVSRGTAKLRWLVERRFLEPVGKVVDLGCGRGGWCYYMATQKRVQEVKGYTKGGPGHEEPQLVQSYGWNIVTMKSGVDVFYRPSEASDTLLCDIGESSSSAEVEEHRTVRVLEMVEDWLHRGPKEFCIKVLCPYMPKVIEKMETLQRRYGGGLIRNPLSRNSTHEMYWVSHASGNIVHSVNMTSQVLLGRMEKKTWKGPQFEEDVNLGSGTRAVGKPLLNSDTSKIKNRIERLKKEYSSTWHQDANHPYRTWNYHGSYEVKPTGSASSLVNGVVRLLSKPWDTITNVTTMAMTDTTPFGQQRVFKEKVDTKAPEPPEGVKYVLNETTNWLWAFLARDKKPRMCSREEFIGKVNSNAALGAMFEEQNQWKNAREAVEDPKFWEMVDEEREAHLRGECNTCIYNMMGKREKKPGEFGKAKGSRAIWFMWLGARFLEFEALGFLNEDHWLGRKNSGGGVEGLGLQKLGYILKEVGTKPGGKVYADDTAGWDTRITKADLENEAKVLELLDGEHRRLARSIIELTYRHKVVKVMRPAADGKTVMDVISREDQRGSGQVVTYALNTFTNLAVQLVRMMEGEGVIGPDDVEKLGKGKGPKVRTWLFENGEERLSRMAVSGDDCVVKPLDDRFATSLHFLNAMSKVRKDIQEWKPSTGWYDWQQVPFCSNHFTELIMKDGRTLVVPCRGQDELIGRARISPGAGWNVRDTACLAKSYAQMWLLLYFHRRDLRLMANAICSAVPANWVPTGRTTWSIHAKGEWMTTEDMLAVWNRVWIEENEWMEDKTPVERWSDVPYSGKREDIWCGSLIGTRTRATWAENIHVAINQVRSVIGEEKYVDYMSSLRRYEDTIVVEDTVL

[4] = target: USUV HA-NS5 (HA-tagged Usutu virus NS5) (Usutu virus) (UniProt Q5WPU5); experiment: as above
Chain of UniProt Q5WPU5 (Q5WPU5 2530-3434): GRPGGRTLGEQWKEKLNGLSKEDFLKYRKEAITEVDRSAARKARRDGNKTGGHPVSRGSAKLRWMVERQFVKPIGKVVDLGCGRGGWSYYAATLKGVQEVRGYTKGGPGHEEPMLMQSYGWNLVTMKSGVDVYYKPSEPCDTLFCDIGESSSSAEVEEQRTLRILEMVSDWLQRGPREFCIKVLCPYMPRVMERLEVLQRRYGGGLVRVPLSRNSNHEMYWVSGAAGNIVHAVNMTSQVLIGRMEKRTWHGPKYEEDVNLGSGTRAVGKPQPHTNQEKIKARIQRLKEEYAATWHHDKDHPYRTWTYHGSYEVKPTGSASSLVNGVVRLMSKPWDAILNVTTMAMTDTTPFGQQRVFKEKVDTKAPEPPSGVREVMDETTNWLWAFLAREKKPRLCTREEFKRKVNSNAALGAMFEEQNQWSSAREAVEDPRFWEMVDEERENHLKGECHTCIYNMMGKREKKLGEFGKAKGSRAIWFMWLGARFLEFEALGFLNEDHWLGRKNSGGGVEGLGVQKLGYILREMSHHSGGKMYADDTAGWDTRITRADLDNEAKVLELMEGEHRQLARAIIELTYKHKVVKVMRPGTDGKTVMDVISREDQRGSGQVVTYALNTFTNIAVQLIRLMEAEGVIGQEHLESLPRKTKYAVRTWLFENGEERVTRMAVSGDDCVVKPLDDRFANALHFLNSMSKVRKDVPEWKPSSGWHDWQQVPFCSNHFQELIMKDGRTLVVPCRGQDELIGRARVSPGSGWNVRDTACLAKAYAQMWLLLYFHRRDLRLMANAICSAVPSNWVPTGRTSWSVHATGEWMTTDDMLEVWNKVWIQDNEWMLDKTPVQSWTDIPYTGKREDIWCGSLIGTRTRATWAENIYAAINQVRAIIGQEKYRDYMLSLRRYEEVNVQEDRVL

Question: Which results are given for “Ubiquitin-like modifier-activating enzyme 1 (UBA1), endogenous”?
Answer: amount of UBA1 relative to controls [1]: > 4 times; fold enrichment over controls (empty vector or EYFP) [2]: > 100 fold; fold enrichment over controls [3]: > 100 fold; fold enrichment over controls [4]: > 100 fold

Reference: paper PMC11708914
